A value given as a limit tells only on which side of the number the result lay.

The subject of one test is MDSCs. To be noted: without any effect on B and T cells, NK cells, or macrophages; cited from earlier work.
Test [1] relates to CD8+ T, NK and Treg cells. Description: Immune cell populations by flow cytometry in wildtype B6 mice bearing Cxcl14-expressing MOE/E6E7 cells. It counts as in vivo, mouse. On the procedure:
MOE/E6E7 cells with Cxcl14 (clones #8 and #16) or vector were injected into the right flank of B6 mice (n=3, each group). Tumor (A) and lymph nodes (B) tissues were harvested at 21 days post injection. Percentage of immune cell populations was determined by flow cytometry.
MOE/E6E7 cell clones expressing Cxcl14 (8 and 16) and one vector containing MOE/E6E7 cell clone were injected into the rear right flank of B6 mice (n=3, each group). Spleen was harvested at 21 days post injection and analyzed by flow cytometry. Relative abundance of Treg cells was determined using anti-CD4 and CD25 antibodies.
(§1) CXCL14 is an evolutionary-conserved chemokine showing 98% homology between human CXCL14 and murine Cxcl14. To determine whether CXCL14 affects tumor growth in vivo, the inventors studied mouse oropharyngeal epithelial cells (MOE/E6E7) that form tumors in immunocompetent syngeneic C57BL/6 (B6) mice. […] To test tumor suppressor functions of CXCL14, the inventors established MOE/E6E7 cell lines that re-expressed their physiological levels of Cxcl14. […] To characterize immune cell infiltration regulated by Cxcl14 expression, the inventors analyzed various immune cells in tumor tissue, tumor draining lymph node (TDLN), and in spleen harvested from the wildtype B6 mice at 21 days after injection with a control or with Cxcl14 expressing MOE/E6E7 cells. […]

In test [2] the test system is splenocytes isolated from B6 mice. Nature of the test: In vitro migration assay using the Transwell system. It counts as cell-based, mouse. On the procedure:
MOE cells with Cxcl14 or vector were cultured on the bottom chamber of a Transwell. Splenocytes were added to the upper chamber. After 12 hr incubation, migrated splenocytes to the bottom chamber were collected and analyzed by flow cytometry.
as §1
(§2) To determine whether CXCL14 affects tumor growth in vivo, the inventors utilized an HNSCC mouse model with MOE/E6E7 cells that form tumors in immunocompetent syngeneic mice. […] Next, the inventors determined whether CXCL14 directly induces chemotaxis of CD8^+ T and NK cells using the Transwell system and splenocytes isolated from B6 mice.

A further test concerns the target T1, IL-8 (Homo sapiens, UniProt P10145).
T1 sequence (P10145 21-99): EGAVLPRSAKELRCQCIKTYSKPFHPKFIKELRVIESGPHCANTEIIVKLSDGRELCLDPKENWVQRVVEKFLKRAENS
To be noted: another study; cited from earlier work.

Test [3] concerns myeloid-derived suppressor cells (MDSC). Nature of the test: MDSC abundance by flow cytometry in tumor and spleen of Rag1-/- mice. The format is in vivo, mouse. To be noted: mice injected with MOE/E6E7 cells re-expressing Cxcl14 vs empty vector, 23 days post injection. On the procedure: MOE/E6E7 cell clones expressing Cxcl14 (8 and 16) and one vector containing MOE/E6E7 cell clone were injected into Rag1−/− mice (n=4, each group). Tumor (A) and spleen (B) were harvested at 23 days post injection, homogenized, and analyzed by flow cytometry. Relative abundance of MDSC cells (A & B) was determined using anti-MHCII, anti-Gr1, and anti-CD11b+ antibodies.
The chemokine receptors CXCR1 and CXCR2 are of primary importance for the migration of granulocytes to sites of inflammation. A recent study has shown that CXCR2 is also required for MDSC infiltration into tumors for cancer development. Additionally, blocking CXCR2-mediated MDSC infiltration enhances efficacy of anti-PD1 therapy. […] Thus, it is likely that CXCR2 ligands produced by HNSCC cells recruit MDSCs into the TME, and that CXCL14 expression interferes with IL-8 mediated MDSC infiltration. Thus, it will be verified that CXCL14 expression in HPV+ HNSCC cells reverses the immunosuppressive microenvironment by inhibiting Cxcr2-mediated MDSC expansion and infiltration. These experiments will determine novel mechanisms by which downregulation of CXCL14 triggers immune suppression in the TME.

The test system of test [4] is MOE/E6E7 cells. Nature of the test: Tumor growth and survival after injection of MOE/E6E7 cells expressing Cxcl14 into wildtype B6 mice. It counts as in vivo, mouse. To be noted: wildtype B6 mice injected with MOE/E6E7 cells expressing Cxcl14. Here is the method:
(§3) Two MOE/E6E7 cell clones expressing Cxcl14 (clones 8 and 16) and one vector containing MOE/E6E7 cell clone were injected into the rear right flank of wildtype (A & B) and Rag1−/− (C & D) B6 mice (n=10, each group of wildtype; n=7, each group of Rag1−/). (A & C) Tumor growth was determined every week by the formula: volume=(width) 2×length. Survival rates were analyzed using a Kaplan-Meier estimator. (B & D) Time-to-event was determined for each group (vector only, Cxcl14-clone 8, Cxcl14-clone 16) with the event being tumor burden larger than 2,500 mm3. Deaths not associated with tumor were censored. P-values were determined by the Log-rank test.
(§4) CXCL14 is an evolutionary-conserved chemokine showing 98% homology between human CXCL14 and murine Cxcl14. […] To characterize immune cell infiltration regulated by Cxcl14 expression, the inventors analyzed various immune cells in tumor tissue, tumor draining lymph node (TDLN), and in spleen harvested from the wildtype B6 mice at 21 days after injection with a control or with Cxcl14 expressing MOE/E6E7 cells. […]
as §2

Test [5] has as its system MOE/E6E7 cells. Description: Tumor growth and survival after injection of MOE/E6E7 cells expressing Cxcl14 into Rag1-/- B6 mice. It counts as in vivo, mouse. On the procedure:
as §3, §4, §2

Consider `Nc1ccn([C@@H]2O[C@H](CO)[C@@H](O)C2(F)F)c(=O)n1` [gemcitabine], for which the “MDSC elimination in tumor-bearing mice” value with MDSCs is recorded as “selectively eliminates MDSCs through apoptosis”.

B1: Cxcl14: chemokine, approximately 9.5 kD secreted protein; tested by re-expression in MOE/E6E7 tumor cells (clones 8 and 16) (protein, UniProt Q9WUQ5 23-99, looked up)
C-X-C motif chemokine 14: SKCKCSRKGPKIRYSDVKKLEMKPKYPHCEEKMVIVTTKSMSRYRGQEHCLHPKLQSTKRFIKWYNAWNEKRRVYEE
On to B1, for which the “Treg cells in spleens” value in test [1] (B6 mice with tumors re-expressing Cxcl14, 21 days post injection) is recorded as “significantly decreased”. Further, the “Percentages of CD8+ T and NK cells in tumor tissues and TDLNs” value in test [1] (wildtype B6 mice, 21 days after injection, vs vector containing cells) was “highly increased”. The “Migration of CD8+ T and NK cells to Cxcl14 expressing HNSCC cells” value in test [2] (12 hr incubation, compared to vector containing HNSCC cells) was 3-4 fold. In addition, the “Migration of macrophages and CD4+ T cells” value in test [2] (CXCL14 expressing MOE/E6E7 cells, splenocytes from B6 mice) was “little effect”. Besides, the “Binding to IL-8” value in the test with IL-8 is “directly binds to IL-8”. In addition, the “MDSCs in tumors and spleens” value in test [3] is given as “significantly decreased”. Moreover, in the test with MOE/E6E7 cells [4], the Tumor clearance result is “a majority of B6 mice injected with MOE/E6E7 cells expressing Cxcl14 cleared tumors”. Further, in the test with MOE/E6E7 cells [5] (Rag1-/- B6 mice injected with MOE/E6E7 cells re-expressing Cxcl14), the “Time to succumb to tumor burden” value is no more than 32 days post injection. Also, in the test on MOE/E6E7 cells [5] (Rag1-/- mice injected with Cxcl14 expressing MOE/E6E7 cells), the Tumor growth result was “delayed tumor growth”.

The values above are taken from patent publication US20180311331A1, “PROGNOSIS AND TREATMENT OF SQUAMOUS CELL CARCINOMAS” (THE REGENTS OF THE UNIVERSITY OF COLORADO, a body corporate, priority 2015, published 2018).
